System: H322 cells
Experiment: Cleaved active caspase-3 immunostaining of resected H322 tumors
Format: in vivo, NMRI nude mice
Protocol: FIG. 3. COMMD2 is required for UNC5B-induced cell death and tumor suppression. (A): Silencing COMMD2 inhibits UNC5B-induced DNA fragmentation. Stable Hela cells inducible for UNC5B were transfected with two distinct siRNA scramble (siCTRL) or targeting COMMD2 (siCOMMD2-1 and -2). Upon treatment for 18 hours with the indicated concentrations of doxycycline (Dox), DNA fragmentation was evaluated through FACS analysis (n=3, **** p<0.0001, Ordinary two-way ANOVA). Values are given as means±SEM. (B, C, D): Tumor growth inhibition driven by netrin-1 interference necessitates UNC5B and COMMD2. NMRI nude mice were engrafted with stable H322 cells, knock-down for luciferase (sgLUC, used as a non-targeting control), UNC5B (sgUNC5B) or COMMD2 (sgCOMMD2), generated with CRISPR-Cas-9-KRAB strategy. Tumors obtained from nude mice engrafted with stable H322 cells were lysed and gene expression was evaluated by quantitative RT-PCR (n=2-3, *p<0.05, Kruskal-Wallis test with Dunn's multiple comparisons test) (B). After tumor volume reached 50 mm^3, mice were intravenously treated three time per week with anti-netrin-1 (NP137) or control (Iso-mAb) antibodies and tumor growth was evaluated (n=10 mice/group, ^nsp>0.05, *p<0.05, Mann-Whitney test, two-tailed) (C). A histogram illustrating tumor volumes at 35 days after first treatment is indicated in (D) (n=10 mice/group, ^nsp>0.05, *p<0.05, *** p<0.001, Kruskal-Wallis test with uncorrected Dunn's test). (E). Silencing of UNC5B and COMMD2 restrains in vivo NP137-induced apoptosis. After sacrificing the mice, tumors were resected and apoptosis was quantified by immunostaining of active cleaved caspase-3. […]
5-week-old female athymic NMRI nude mice were obtained from Janvier Labs (Saint Bertevin, France). […] Tumor size was measured three times per week with a caliper. Tumor volume was calculated according to the formula v=0.5× (l×w2), where v is volume, l is length, and w is width. […]

B1: NP137: humanized anti-netrin-1 monoclonal antibody, VH SEQ ID NO: 22, VL SEQ ID NO: 16, human IgG1 (antibody, V domains shown)
VH: QVQLQQSGPGLVKPSQTLSLTCAISGYTFTSYNMHWVRQATGQGLEWMGAIYPGNGDTSYNQKFKGRLTISKDTSKNQVVLTMTNMDPVDTATYYCARGGTGFAYWGQG
VL: DIQMTQSPSSLSASVGDRVTITCKASQSVSNDVAWYQQKPGQAPRLLIYYASNRYTGIPPRFSGSGYGTDFTLTINNIESEDAAYYFCQQDYSSPWTFGQG
modifications: human IgG1 constant region; humanized variant; MISC_FEATURE - CDR according to IGMT
In the case of B1, the “percentage of caspase-3 positive cells” value (H322 tumors knocked-out for COMMD2) is reported as “failed to detect a similar increase”, the “percentage of caspase-3 positive cells” value (H322 tumors knocked-out for UNC5B) is reported as “failed to detect a similar increase” and the “apoptosis, cleaved active caspase-3 positive cells” value (control H322 tumors (sgLUC)) is reported as “associated with apoptosis induction”.
